Molecular target: the molecule itself
Assay: SEC

Protein	stoichiometry N
Deinococcus geothermalis DdrO (residues 12-140) (natural protein) MGSSHHHHHHSSGLVPRGSHMKLHERLRELRSERGLRLKDVAETAGISVPYLSDLERGRTNPSLETLQTLAGAYSITVHDLLEGVEFYGDSTEGALPKGLADLVADPLLGSQITPDWVRTLSRIELRGKRPRDKQDWYEIYLHLKRILG	2
DG-DdrO Y132A (natural protein) MGSSHHHHHHSSGLVPRGSHMKLHERLRELRSERGLRLKDVAETAGISVPYLSDLERGRTNPSLETLQTLAGAYSITVHDLLEGVEFYGDSTEGALPKGLADLVADPLLGSQITPDWVRTLSRIELRGKRPRDKQDWYEIALHLKRILG	2
DG-DdrO R22A (natural protein) MGSSHHHHHHSSGLVPRGSHMKLHERLRELASERGLRLKDVAETAGISVPYLSDLERGRTNPSLETLQTLAGAYSITVHDLLEGVEFYGDSTEGALPKGLADLVADPLLGSQITPDWVRTLSRIELRGKRPRDKQDWYEIYLHLKRILG	2
DG-DdrO Y129A (natural protein) MGSSHHHHHHSSGLVPRGSHMKLHERLRELRSERGLRLKDVAETAGISVPYLSDLERGRTNPSLETLQTLAGAYSITVHDLLEGVEFYGDSTEGALPKGLADLVADPLLGSQITPDWVRTLSRIELRGKRPRDKQDWAEIYLHLKRILG	2
